Data taken from PMC12796366.

Legend:
EGFP (Aequorea victoria) = assay: AUC; sedimentation velocity, 0.5 mg/mL of the isolated fluorescent protein, 25 mM phosphate buffer pH 6.2 or 7.4, 150 mM NaCl, 1% glycerol, 1 mM MgCl2, 0.5 mM beta-mercaptoethanol (legend also: 50 mM KCl), 42,000 rpm, 20 °C, interference detection, c(s) fit with Sedfit
EYFP (Aequorea victoria) = assay: as above

Row | Substance | stoichiometry N (EGFP (Aequorea victoria)) | stoichiometry N (EYFP (Aequorea victoria))
1 | EGFP | 2 | –
2 | EYFP | – | 2
